In article PMC8699718, “A structurally conserved site in AUP1 binds the E2 enzyme UBE2G2 and is essential for ER-associated degradation” (PLoS Biology, 2021):

How the values were obtained:
[1] = system: NHK (Null Hong Kong variant of alpha1-antitrypsin); assay: CHX chase: NHK degradation in HT1080 AUP1 KO cells; format: cell-based, human; conditions: for restoration of NHK degradation: full-length or deleted AUP1-FLAG re-expressed in HT1080 AUP1 KO cells, CHX 50 μg/mL
Experimental: Fig 1 The G2BR of AUP1 is required for ERAD of NHK. (A) HT1080 or cells in which HRD1 was knocked out by CRISPR/Cas-9 (HRD1 KO) were transfected with plasmid encoding carboxyl-terminally HA-tagged NHK. Cells were treated with CHX for the indicated times to inhibit protein synthesis and NHK-HA degradation monitored by western blot. GFP and HSP60 serve as transfection efficiency and gel loading controls, respectively. (B) HT1080 or cells in which either AUP1 or gp78 was knocked out (AUP1 KO or gp78 KO) were transfected with NHK-HA and their degradation assessed. (C) AUP1 KO cells were transfected with NHK-HA and empty vector or plasmid encoding carboxyl-terminally FLAG-tagged AUP1 and NHK degradation assessed. (D) Indicated cells were transfected with plasmid encoding carboxyl-terminally MYC-tagged INSIG-1 and assessed for INSIG-1 degradation. (E) Schematic representation of AUP1 in the ER membrane and deletion mutants used in subsequent experiments. Amino acid residues are numbered spanning each domain. (F) AUP1 KO cells were transfected with NHK-HA and plasmids encoding the indicated FLAG-tagged AUP1 WT or deletion mutants and assessed for NHK degradation. (G) HEK293 (Parental) or HEK293 AUP1 KO cells were assessed for degradation of NHK-HA. (H) HEK293 AUP1 KO cells were assessed for NHK-HA degradation as in (F). Markers represent apparent molecular weight in kDa. The data underlying this figure can be found in S1 Data. aa, amino acid; AUP1, ancient ubiquitous protein 1; CHX, cycloheximide; ER, endoplasmic reticulum; ERAD, endoplasmic reticulum–associated degradation; G2BR, UBE2G2 Binding Region; KO, knockout; NHK, Null Hong Kong; WT, wild type.
(§1) Fig 6 Disruption of UBE2G2:G2BR^AUP1 interaction abrogates AUP1 function in cells. (A) GST or indicated GST-AUP1 fusions (aa 292 to 410, expression shown in Coomassie-stained gel) were immobilized on glutathione beads and binding to ^35S-UBE2G2 was assessed as in Fig 3A. Mutations include 2A (R382A/Q383A), 2E (R382E/Q383E), and 5E (R382E/Q383E/K390E/R398E/R400E). (B) AUP1 KO cells were transfected with NHK-HA and forms of full-length AUP1-FLAG with the indicated point mutations from (A) and NHK degradation assessed by CHX chase. (C) Binding assay performed as in (A) with AUP1 mutants predicted to disrupt hydrophobic interactions with UBE2G2. (D) Cellular assay performed as in (B) with AUP1-FLAG mutants that disrupt interactions with UBE2G2 in vitro in (C). The data underlying this figure can be found in S1 Data. aa, amino acid; AUP1, ancient ubiquitous protein 1; CHX, cycloheximide; G2BR, UBE2G2 Binding Region; KO, knockout; WT, wild type.
Fig 8 Recruitment of UBE2G2 to the ER membrane and activation by G2BR^AUP1 is required for ERAD. (A) HT1080 or AUP1 KO cells were transfected with NHK-HA and either empty vector or MYC-UBE2G2 and NHK turnover assessed by CHX chase. (B) AUP1 KO cells were transfected with NHK-HA and GFP fusions of either a scrambled G2BR sequence (SCR) or G2BR^AUP1 and NHK turnover and levels of endogenous UBE2G2 assessed. Luciferase and β-actin served as transfection efficiency and gel loading controls, respectively. (C) AUP1 KO cells were transfected with NHK-HA, MYC-UBE2G2, and either GFP-SCR or GFP-G2BR^AUP1 and NHK turnover assessed. (D) Membrane fractionation was performed on HT1080 or AUP1 KO cells transfected with either empty vector or AUP1-FLAG and localization of UBE2G2 assessed by western blotting. Localization of β-actin (cytosol) and Calnexin (ER membrane) were used as controls for cytosolic (C) and membrane (M) fractions, respectively. (E) Membrane fractionation of AUP1 KO cells transfected with either MYC-UBE2G2 or TM-UBE2G2. (F) HT1080 cells were transfected with TM-UBE2G2 and its localization assessed by confocal microscopy. Images shown are from an optical section after deconvolution. HA-tagged UBE2J2, an ER-localized E2, serves as an ER marker. […]

UBE2G2 = target: T1, UBE2G2 (Homo sapiens, UniProt P60604); assay: GST pulldown of in vitro translated 35S-UBE2G2; format: binding; conditions: GST-AUP1 aa 292 to 410 on glutathione beads, ~3 pmol GST fusion, ~0.2 pmol E2, overnight 4°C, pH 7.4
T1 construct: made in house
T1 sequence (P60604 1-165): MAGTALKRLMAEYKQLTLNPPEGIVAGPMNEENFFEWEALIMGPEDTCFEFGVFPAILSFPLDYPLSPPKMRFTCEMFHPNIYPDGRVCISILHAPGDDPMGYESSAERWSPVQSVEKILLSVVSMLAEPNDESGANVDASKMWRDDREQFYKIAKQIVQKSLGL
Experimental: Fig 3 The AUP1–UBE2G2 interaction is required for ERAD. (A) Equimolar amounts of GST-AUP1 (aa 292 to 410) or GST were immobilized on glutathione beads and binding to the indicated in vitro translated ^35S-labeled E2s was assessed. Left panel is 5% of input used for binding. E2s are referred to by their unique alpha-numeric designation (e.g., UBE2G1 and UBE2J1). (B) HT1080 or UBE2G2 KO cells were transfected with INSIG-1-MYC and degradation assessed by CHX chase. […] (D) Cells were transfected with NHK-MYC and HA-ubiquitin and ubiquitination of NHK assessed following proteasome inhibition and IP (right panel). Left panel is 10% of total cell lysate used for IP, indicating no discernable change in total ubiquitination. (E) Levels of endogenous HRD1 were monitored by CHX chase in the indicated cell types. (F) Ubiquitination of endogenous HRD1 was assessed following IP with HRD1 antiserum. Arrow in upper panel indicates migration of unmodified HRD1. Control immunoprecipitates using rabbit serum are shown for comparison. The data underlying this figure can be found in S1 Data. aa, amino acid; AUP1, ancient ubiquitous protein 1; CHX, cycloheximide; ERAD, endoplasmic reticulum–associated degradation; IP, immunoprecipitation; KO, knockout; WT, wild type.
as §1
In vitro translated ^35S methionine-labeled E2s were generated using the E. coli T7-S30 Extract System (Promega) and excess ^35S methionine was removed by desalting twice with Zeba Spin Desalting Columns (Thermo Scientific). GST fusion proteins were quantified by Coomassie blue staining. Moreover, 0.1 μg of GST fusion protein (approximately 3 pmol) was prebound to GS 4B (GE Healthcare) and then incubated with approximately 10^5 cpm of ^35S methionine-labeled E2 (approximately 0.2 pmol) in 200 μl Binding Buffer (25 mM Tris-HCl, pH 7.4, 50 mM NaCl, 5 mM DTT, 0.5% IGEPAL CA-630) overnight at 4°C. Beads were extensively washed in Binding Buffer, resolved on Bis/Tris polyacrylamide gels under reducing conditions, dried and visualized on a Typhoon FLA 7000 (GE Healthcare). Binding was quantified using ImageQuant Software.

B1: AUP1-FLAG: full-length epitope-tagged AUP1 (protein, UniProt Q9Y679 1-410, looked up)
chain: MELPSGPGPERLFDSHRLPGDCFLLLVLLLYAPVGFCLLVLRLFLGIHVFLVSCALPDSVLRRFVVRTMCAVLGLVARQEDSGLRDHSVRVLISNHVTPFDHNIVNLLTTCSTPLLNSPPSFVCWSRGFMEMNGRGELVESLKRFCASTRLPPTPLLLFPEEEATNGREGLLRFSSWPFSIQDVVQPLTLQVQRPLVSVTVSDASWVSELLWSLFVPFTVYQVRWLRPVHRQLGEANEEFALRVQQLVAKELGQTGTRLTPADKAEHMKRQRHPRLRPQSAQSSFPPSPGPSPDVQLATLAQRVKEVLPHVPLGVIQRDLAKTGCVDLTITNLLEGAVAFMPEDITKGTQSLPTASASKFPSSGPVTPQPTALTFAKSSWARQESLQERKQALYEYARRRFTERRAQEAD
modifications: full-length FLAG tag
In the case of B1, the “restoration of NHK degradation” value [1] is reported as “restored NHK degradation”.

B2: A397D: AUP1 point mutant; GST-AUP1 aa 292 to 410 in vitro, full-length AUP1-FLAG in cells (protein)
chain: SPDVQLATLAQRVKEVLPHVPLGVIQRDLAKTGCVDLTITNLLEGAVAFMPEDITKGTQSLPTASASKFPSSGPVTPQPTALTFAKSSWARQESLQERKQALYEYDRRRFTERRAQEAD
modifications: left off: GST, end not stated, kept
notes: AUP1 point mutant; GST-AUP1 aa 292 to 410 in vitro, full-length AUP1-FLAG in cells
In the case of B2, the “binding to UBE2G2” value (UBE2G2) is reported as “Binding was similarly lost”, the “restoration of NHK degradation” value [1] is reported as “failed to restore NHK degradation” and the “NHK degradation, doubled amount of plasmid” value ([1]; repeat transfection with doubled amount of mutant, reviewer response) is reported as “unable to convince ourselves that there is any significant degradation”.

B3: 2A: AUP1 point mutant R382A/Q383A (GST-AUP1 aa 292 to 410) (protein, UniProt Q9Y679 1-410, looked up, variant R382A Q383A)
Lipid droplet-regulating VLDL …: MELPSGPGPERLFDSHRLPGDCFLLLVLLLYAPVGFCLLVLRLFLGIHVFLVSCALPDSVLRRFVVRTMCAVLGLVARQEDSGLRDHSVRVLISNHVTPFDHNIVNLLTTCSTPLLNSPPSFVCWSRGFMEMNGRGELVESLKRFCASTRLPPTPLLLFPEEEATNGREGLLRFSSWPFSIQDVVQPLTLQVQRPLVSVTVSDASWVSELLWSLFVPFTVYQVRWLRPVHRQLGEANEEFALRVQQLVAKELGQTGTRLTPADKAEHMKRQRHPRLRPQSAQSSFPPSPGPSPDVQLATLAQRVKEVLPHVPLGVIQRDLAKTGCVDLTITNLLEGAVAFMPEDITKGTQSLPTASASKFPSSGPVTPQPTALTFAKSSWAAAESLQERKQALYEYARRRFTERRAQEAD
modifications: GST fusion aa 292-410
In the case of B3, the “binding to UBE2G2” value (UBE2G2) is reported as “unable to disrupt UBE2G2 binding”.

B4: 2E: AUP1 point mutant; GST-AUP1 aa 292 to 410 in vitro, full-length AUP1-FLAG in cells (protein, UniProt Q9Y679 1-410, looked up, variant R382E Q383E)
Lipid droplet-regulating VLDL …: MELPSGPGPERLFDSHRLPGDCFLLLVLLLYAPVGFCLLVLRLFLGIHVFLVSCALPDSVLRRFVVRTMCAVLGLVARQEDSGLRDHSVRVLISNHVTPFDHNIVNLLTTCSTPLLNSPPSFVCWSRGFMEMNGRGELVESLKRFCASTRLPPTPLLLFPEEEATNGREGLLRFSSWPFSIQDVVQPLTLQVQRPLVSVTVSDASWVSELLWSLFVPFTVYQVRWLRPVHRQLGEANEEFALRVQQLVAKELGQTGTRLTPADKAEHMKRQRHPRLRPQSAQSSFPPSPGPSPDVQLATLAQRVKEVLPHVPLGVIQRDLAKTGCVDLTITNLLEGAVAFMPEDITKGTQSLPTASASKFPSSGPVTPQPTALTFAKSSWAEEESLQERKQALYEYARRRFTERRAQEAD
modifications: GST or FLAG tag
notes: as for B2
For B4, the “binding to UBE2G2” value (UBE2G2) was “failed to disrupt UBE2G2 binding” and the “restoration of NHK degradation” value [1] was “restored degradation of NHK in the AUP1 KO cells, to a degree comparable to WT AUP1”.

B5: Y394D: AUP1 point mutant (GST-AUP1 aa 292 to 410) (protein)
chain: SPDVQLATLAQRVKEVLPHVPLGVIQRDLAKTGCVDLTITNLLEGAVAFMPEDITKGTQSLPTASASKFPSSGPVTPQPTALTFAKSSWARQESLQERKQALDEYARRRFTERRAQEAD
modifications: left off: GST, end not stated, kept
In the case of B5, the “binding to UBE2G2” value (UBE2G2) is reported as “reduced binding”.
